# B1: ML-1: new member of the IL-17 cytokine family, SEQ ID NO:2; His-tagged recombinant protein expressed in COS-7 cells and affinity purified (protein, listed as Homo sapiens)
# chain: MKLDIGIINENQRVSMSRNIESRSTSPWNYTVTWDPNRYPSEVVQAQCRNLGCINAQGKEDISMNSVPIQQETLVVRRKHQGCSVSFQLEKVLVTVGCTCVTPVIHHVQ
# modifications: His tag
# Experiments:
# ICAM-1 = ICAM-1 surface protein expression on NHBE cells by flow cytometry; assay type: cell-based, human; conditions: 100 ng/ml, 48 hours, mean±SD (n=4)
# Method: FIG. 4. Effect of ML-1 on ICAM-1 surface expression on NHBE cells by Flow Cytometry. NHBE cells were treated for 48 hours under following conditions: medium only, rIL-17 (100 ng/ml), purified His-tagged protein (Positope, 100 ng/ml), or ML-1 (100 ng/ml) as indicated. The mean fluorescence intensity of ICAM-1 surface expression was measured. The experiment was conducted four times. The results shown are from a representative experiment. * p<0.01.
# To determine whether ML-1 is able to induce ICAM-1 expression on NHBE cells, surface expression of ICAM-1 on NHBE cells was measured and the effects of ML-1 and IL-17 were compared.
# NHBE cells were treated with IL-17 (100 ng/ml), ML-1 (100 ng/ml), or a control His protein (Positope, 100 ng/ml). The cells were harvested following treatment with 0.1% trypsin-0.02% EDTA at 37° C. for 6 minutes and suspended in PBS containing 2% BSA and 0.02 % sodium azide. One million cells were incubated with a mouse anti-human ICAM-1 monoclonal antibody (R&D Systems, Minneapolis, Minn.) on ice for 30 minutes. […] After three additional washes in PBS, the cells were resuspended in PBS and immediately analyzed with a FACScan flow cytometer (Becton Dickinson, Mountain View, Calif.). […] Indices are expressed as mean±SD (n=4).
# IL-8 = IL-8 expression in NHBE cells (RT-PCR and ELISA); assay type: cell-based, human; conditions: 100 ng/ml
# Excerpt: FIGS. 3A-3C. FIG. 3A, Expression of ML-1 protein in COS-7 cells. COS-7 cells were transfected with a gene construct containing full-length ML-1 sequence and a tag sequence encoding poly (His) peptide. ML-1-His fusion proteins were purified from supernatants of the transfected cells using a His affinity column, run on an 8-16% SDS-polyacrylamide gel under reducing conditions, and analyzed by Western Blot using anti-His monoclonal antibody. Lane 1 represents a mock-transfected sample. Lane 2 represents an ML-1-transfected sample. The location of a 19.5 kd marker is indicated. FIG. 3B, Effect of ML-1 on IL-8 gene expression. Human primary bronchial epithelial cells (NHBE cells) were treated with different stimuli. The cells were harvested 4 hours after stimulation, and total RNA was extracted and subjected to RT-PCR using IL-8 and G3PDH primers. Lane 1, medium only; lane 2, cells treated with rIL-17 (100 ng/ml); lane 3, cells treated with purified His-tagged protein (Positope, 100 ng/ml); lane 4, cells treated with ML-1 (100 ng/ml). FIG. 3C, Effect of ML-1 on IL-8 protein production. NHBE cells were treated with the same stimuli used in FIG. 3B, and the supernatants were harvested 48 hours after stimulation.
# Primary human bronchial epithelial (NHBE) cells were purchased from Clonetics (San Diego, Calif.) and cultured according to the manufacturer's instructions. The cells were treated with IL-17 (100 ng/ml), ML-1 (100 ng/ml), or a control His-tagged protein (Positope, 100 ng/ml; Invitrogen, Carlsbad, Calif.). The affinity-purified control His protein was dissolved in the same buffer as ML-1. Total RNA was extracted using Rneasy (Qiagen, Chatsworth, Calif.) from 1×10^6 cells 4 hours after stimulation or exchange of media. The protocol for cDNA synthesis was that described above. For PCR, the sequences of PCR primers were based on the human IL-8 cDNA sequence. The sequences of PCR primers for IL-8 were: forward, 5′-TCTGCAGCTCTGTGTGAAG-3′ (SEQ ID NO:14) and reverse, 5′-TAATTTCTGTGTTGGCGCA-3′ (SEQ ID NO:15). The amplification reaction was performed for 23 cycles with denaturation at 94° C. for 45 seconds, annealing at 56° C. for 45 seconds, and extension at 72° C. for 45 seconds PCR products were detected by ethidium bromide staining. The expected size for IL-8 was 154 basepairs. IL-8 protein levels in the collected supernatants were determined with a commercially available ELISA kit (Biosource, Camarillo, Calif.) according to the manufacturer's instructions.
molecule,measurement,setting,value
B1,"ICAM-1 surface expression, mean fluorescence intensity (MFI)",ICAM-1,31.42±4.39
same,IL-8 protein expression,"IL-8; ELISA of supernatants, 48 hours",enhanced
same,IL-8 transcript expression,IL-8; RT-PCR,enhanced

# Source: patent publication US20060073572A1, “Cytokine structurally related to IL-17” (The Johns Hopkins University, priority 2001, published 2006)
